In patent US20190071513A1 (APTEVO RESEARCH AND DEVELOPMENT, published 2019):
Read-outs that look alike come from different tables or passages of the source.

Legend:
[1] = biological target: human CD123 on the surface of CD123(+) cell lines (human) (UniProt P26951); assay: flow cytometry competition on Molm-13 cells: preincubation with unlabeled 7G3, then PE-conjugated 7G3 at 13 nM as the competitor that is read
[2] = biological target: human CD123 on the surface of CD123(+) cell lines (human) (UniProt P26951); assay: cell-based or functional assay
[3] = biological target: human CD123 on the surface of CD123(+) cell lines (human) (UniProt P26951); assay: flow cytometry competition on Molm-13 cells; competitor PE-conjugated 7G3 at 13 nM
[4] = biological target: T1, human CD123 on the surface of CD123(+) cell lines (human, UniProt P26951 19-378); assay: cell-based or functional assay
T1 sequence (P26951 19-378 limits assumed, form in doubt): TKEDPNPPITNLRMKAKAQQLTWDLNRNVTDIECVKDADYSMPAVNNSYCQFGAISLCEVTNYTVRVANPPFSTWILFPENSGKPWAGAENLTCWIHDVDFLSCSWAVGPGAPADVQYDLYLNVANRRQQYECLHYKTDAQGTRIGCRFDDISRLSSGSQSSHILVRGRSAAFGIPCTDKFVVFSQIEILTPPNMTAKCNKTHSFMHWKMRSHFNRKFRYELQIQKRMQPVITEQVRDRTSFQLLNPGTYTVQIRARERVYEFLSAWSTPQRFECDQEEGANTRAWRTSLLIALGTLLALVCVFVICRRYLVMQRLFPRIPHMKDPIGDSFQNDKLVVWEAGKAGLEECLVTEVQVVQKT

[5] = biological target: T1, human CD123 on the surface of CD123(+) …; assay: flow cytometry on CD123(+) Molm-13 cells, PE anti-human IgG Fc secondary antibody, MFI; table under the graph
Procedure: (§1) The Molm-13 cell line was obtained from DSMZ (Braunschweig, Germany). The Molm-13 cell line was cultured according to the provided protocols. Chinese hamster ovary (CHO) cells stably expressing the full length cynomolgus CD123 protein were developed in-house. […] Signal from bound molecules was detected using a LSR-II™ flow cytometer (BD Biosciences) and analyzed by FlowJo flow cytometry analysis software. Mean fluorescence intensity (MFI) of bound molecules on cells was determined after exclusion of doublets. Nonlinear regression analysis to determine EC50 values was performed in GraphPad Prism 7® graphing and statistics software.

[6] = biological target: T2, human CD123 ectodomain with Avi-3xFLAG-His affinity tag (TRI032) (human); assay: SPR (Biacore T200), bispecific captured by anti-Fc, monomeric CD123 ECD as analyte, 25 C, 1:1 model
T2 construct: also called CD123 ECD; recombinant monomeric CD123 ectodomain (ECD)
T2 chain: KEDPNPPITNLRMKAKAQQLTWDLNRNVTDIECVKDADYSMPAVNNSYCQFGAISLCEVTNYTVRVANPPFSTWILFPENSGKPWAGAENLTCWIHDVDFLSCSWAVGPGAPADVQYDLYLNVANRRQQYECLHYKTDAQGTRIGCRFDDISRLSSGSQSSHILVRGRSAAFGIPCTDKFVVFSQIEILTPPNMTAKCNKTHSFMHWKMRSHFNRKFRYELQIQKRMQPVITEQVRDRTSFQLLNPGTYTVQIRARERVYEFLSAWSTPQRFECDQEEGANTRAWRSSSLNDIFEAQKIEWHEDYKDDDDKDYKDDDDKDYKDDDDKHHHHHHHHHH
Procedure: SPR binding studies of bispecific molecules to recombinant monomeric CD123 ectodomain (ECD) were conducted at 25° C. in HBS-EP+ buffer. […] The bispecific molecules at 200 nM in HBS-EP+ buffer were captured by the immobilized anti-Fc F(ab′)2 fragment at a flow rate of 30 μL/min for 120 sec to reach a stable 2000 RU response. […] Optimal regeneration was achieved by one injection of 10 mM glycine (pH 1.7) at a flow rate of 30 μL/min for 15 sec followed by one injection of 50 mM NaOH at 30 μL/min for 15 sec. A two minute stabilization with HBS-EP+ buffer was completed before the subsequent run.
Sensorgrams obtained from kinetic SPR measurements were analyzed by the double subtraction method. The signal from the reference flow cell was subtracted from the analyte binding response obtained from flow cells with immobilized or captured ligands. Buffer reference responses were then averaged from multiple injections. […] All sensorgrams were fitted using a simple one-to-one binding model.

[7] = biological target: T3, Full-length cynomolgus CD123, isoform 1 (TRI114), on transfected cells (cynomolgus monkey); assay: flow cytometry on CHO cells stably expressing cynomolgus CD123, PE anti-human IgG Fc secondary antibody, MFI; table under the graph
T3 construct: also called cyno CD123; CHO cells stably expressing cynomolgus CD123 protein
T3 chain: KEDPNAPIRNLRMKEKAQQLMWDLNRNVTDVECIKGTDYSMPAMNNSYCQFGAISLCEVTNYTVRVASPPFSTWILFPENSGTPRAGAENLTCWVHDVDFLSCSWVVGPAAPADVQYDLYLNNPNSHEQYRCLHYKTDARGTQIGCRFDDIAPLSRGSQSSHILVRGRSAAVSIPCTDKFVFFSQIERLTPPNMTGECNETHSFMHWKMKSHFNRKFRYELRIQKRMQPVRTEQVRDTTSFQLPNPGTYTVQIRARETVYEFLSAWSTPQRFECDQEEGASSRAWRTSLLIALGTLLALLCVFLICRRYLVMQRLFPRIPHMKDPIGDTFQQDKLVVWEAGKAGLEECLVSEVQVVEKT
Procedure: as §1

[8] = biological target: T1, human CD123 on the surface of CD123(+) …; assay: flow cytometry on CD123(+) Molm-13 cells, PE anti-human IgG Fc secondary antibody, MFI; table under the graph; remark: listed apart in the source
Procedure: as §1

[9] = biological target: T4, CD3ε on Jurkat cells and human T-cells (human, UniProt P07766 23-207); assay: flow cytometry on CD3ε(+) Jurkat cells, PE anti-human Fc secondary
T4 construct: whole, on cells; on cells CD3ε stands in the TCR/CD3 complex; also called CD3 epsilon; CD3ε(+) Jurkat cell line
T4 sequence (P07766 23-207): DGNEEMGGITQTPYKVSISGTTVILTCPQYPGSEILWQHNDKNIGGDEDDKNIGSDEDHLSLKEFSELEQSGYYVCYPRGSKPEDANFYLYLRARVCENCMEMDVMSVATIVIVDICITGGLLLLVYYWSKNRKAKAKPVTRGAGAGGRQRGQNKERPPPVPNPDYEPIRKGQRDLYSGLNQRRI
Procedure: Flow cytometry was used to quantitate binding of constructed molecules to the CD3ε expressing Jurkat cell line. Binding studies on the CD3ε(+) Jurkat cell line were performed by standard flow cytometry-based staining procedures. […] Signal from bound molecules was detected using a LSR-II™ flow cytometer (BD Biosciences) and analyzed by FlowJo flow cytometry analysis software. Mean fluorescence intensity (MFI) of bound molecules on cells was determined after exclusion of doublets.

human CD123 on the surface of CD123(+) cell lines (human), sequence (P26951 19-378 limits assumed, form in doubt): as the sequence (P26951 19-378 limits assumed, form in doubt) above

B1: anti-human CD123 monoclonal antibody 7G3 (antibody, from another filing, V domains shown)
VH: EVQLQQSGPELVKPGASVKMSCKASGYTFTDYYMKWVKQSHGKSLEWIGDIIPSNGATFYNQKFKGKATLTVDRSSSTAYMHLNSLTSEDSAVYYCTRSHLLRASWFAYWGQGTLVTVSA
VL: DFVMTQSPSSLTVTAGEKVTMSCKSSQSLLNSGNQKNYLTWYLQKPGQPPKLLIYWASTRESGVPDRFTGSGSGTDFTLTISSVQAEDLAVYYCQNDYSYPYTFGGGTKLEIKR
IC50 (read off the curve) [1]: 2 nM | IL-3 induced proliferation of TF-1 cells (CyQUANT), 4 days [2]: 100% | percent inhibition of binding of PE-conjugated 7G3 [3]: 100%

B2: TRI168 (bispecific antibody)
chain 1: QAVVTQEPSLTVSPGGTVTLTCRSSTGAVTTSNYANWVQQKPGQAPRGLIGGTNKRAPWTPARFSGSLLGGKAALTITGAQAEDEADYYCALWYSNLWVFGGGTKLTVLGGGGSGGGGEVQLVQSGAELKKPGASVKVSCKASGYTFTDYYMKWVRQAPGQGLEWIGDIIPSNGATFYNQKFKGRVTITVDKSTSTAYMELSSLRSEDTAVYYCARSHLLRASWFAYWGQGTLVTVSSGGCGGGEVAALEKEVAALEKEVAALEKEVAALEK
chain 2: DFVMTQSPDSLAVSLGERVTMSCKSSQSLLNSGNQKNYLTWYQQKPGQPPKLLIYWASTRESGVPDRFSGSGSGTDFTLTISSLQAEDVAVYYCQNDYSYPYTFGQGTKLEIKGGGSGGGGEVQLVESGGGLVQPGGSLRLSCAASGFTFSTYAMNWVRQAPGKGLEWVGRIRSKYNNYATYYADSVKDRFTISRDDSKNSLYLQMNSLKTEDTAVYYCVRHGNFGNSYVSWFAYWGQGTLVTVSSGGCGGGKVAALKEKVAALKEKVAALKEKVAALKESSSLNDIFEAQKIEWHEDYKDDDDKDYKDDDDKDYKDDDDKHHHHHHHHHH
EC50 of T-cell activation (CD4+ and CD8+ CD25+ CD69+) with Molm-13 cells, 24 hours [4]: < 0.01 nM | EC50 of T-cell proliferation (CFSE) with Molm-13 cells, 4 days [4]: 0.002 to 0.005 nM

B3: TRI129 (bispecific antibody)
chain: EVQLLESGGGLVQPGGSLRLSCAASGFTFSSYGMSWVRQAPGKGLEGVSAISGSGGSTYYADSVKGRFTISRDNSKNTLYLQMNSLRAEDTAVYYCAKEKLRYFDWLSDAFDIWGQGTMVTVSSGGGGSGGGGSGGGGSGGGGSDIVMTQSPDSLAVSLGERATINCKSSHSVLYSSNNKNYLAWYQQKPGQPPKLLIYWASTRESGVPDRFSGSGSGTDFTLTISSLQAEDVAVYYCQQYYSTPPTTFGGGTKVEIKSSSEPKSSDKTHTCPPCPAPEAAGAPSVFLFPPKPKDTLMISRTPEVTCVVVDVSHEDPEVKFNWYVDGVEVHNAKTKPREEQYNSTYRVVSVLTVLHQDWLNGKEYKCAVSNKALPAPIEKTISKAKGQPREPQVYTLPPSRDELTKNQVSLTCLVKGFYPSDIAVEWESNGQPENNYKTTPPVLDSDGSFFLYSKLTVDKSRWQQGNVFSCSVMHEALHNHYTQKSLSLSPGSGGGGSGGGGSGGGGSPSQVQLVQSGPEVKKPGSSVKVSCKASGYTFSRSTMHWVRQAPGQGLEWIGYINPSSAYTNYNQKFKDRVTITADKSTSTAYMELSSLRSEDTAVYYCARPQVHYDYNGFPYWGQGTLVTVSSGGGGSGGGGSGGGGSGGGGSDIQMTQSPSTLSASVGDRVTMTCSASSSVSYMNWYQQKPGKAPKRWIYDSSKLASGVPSRFSGSGSGTDYTLTISSLQPDDFATYYCQQWSRNPPTFGGGTKVEIKRS
notes: scFv-Fc-scFv, anti-CD123 × anti-CD3ε; dimer; also called OMT1 VHVL × TSC456 scFv-Fc-scFv
EC50 [5]: 9.69 nM | Kd [6]: 11.4 nM | koff [6]: 0.00205 s⁻¹ | kon [6]: 179000 M⁻¹ s⁻¹ | EC50 [7]: 8.77 nM | EC50 [8]: 5.33 nM

B4: TSC266 (bispecific antibody)
chain: DIQMTQSPSAMSASVGDRVTITCRASKSISKYLAWFQQKPGKVPKLRIHSGSTLQSGVPSRFSGSGSGTEFTLTISSLQPEDFATYYCQQHIEYPWTFGQGTKVEIKRGGGGSGGGGSGGGGSQVQLVQSGAEVKKPGASVKVSCKASGYTFTDYYMHWVRQAPGQGLEWMGYFNPYNDYTRYAQKFQGRVTMTRDTSISTAYMELSSLRSDDTAVYYCARSDGYYDAMDYWGQGTTVTVSSSEPKSSDKTHTCPPCPAPEAAGAPSVFLFPPKPKDTLMISRTPEVTCVVVDVSHEDPEVKFNWYVDGVEVHNAKTKPREEQYNSTYRVVSVLTVLHQDWLNGKAYACAVSNKALPAPIEKTISKAKGQPREPQVYTLPPSRDELTKNQVSLTCLVKGFYPSDIAVEWESNGQPENNYKTTPPVLDSDGSFFLYSKLTVDKSRWQQGNVFSCSVMHEALHNHYTQKSLSLSPGQRHNNSSLNTGTQMAGHSPNSQVQLVESGGGVVQPGRSLRLSCKASGYTFTRSTMHWVRQAPGQGLEWIGYINPSSAYTNYNQKFKDRFTISADKSKSTAFLQMDSLRPEDTGVYFCARPQVHYDYNGFPYWGQGTPVTVSSGGGGSGGGGSGGGGSAQDIQMTQSPSSLSASVGDRVTMTCSASSSVSYMNWYQQKPGKAPKRWIYDSSKLASGVPARFSGSGSGTDYTLTISSLQPEDFATYYCQQWSRNPPTFGGGTKLQITSSS
notes: anti-PSMA scFv - Fc - anti-CD3 scFv (CRIS-7 derived) at the C-terminus; also called anti-PSMA×CRIS-7 scFv-Fc-scFv
EC50 [9]: 2 nM | fold reduction of binding against DRA240 [9]: ~10 fold
